The target of this assay is FGF-21 receptor. Description: cell-based or functional assay.

The substance “recombinant human FGF-21 (from UniProt Q9NSA1 29-209) (ligand)” came in with a Glucose uptake CPM, 3T3-L1 fat cells, protein at 0 nM (baseline) of 1880 CPM; a Glucose uptake CPM, 3T3-L1 fat cells, protein at 0.03 nM of 1800 CPM; a Glucose uptake CPM, 3T3-L1 fat cells, protein at 0.15 nM of 2110 CPM; a Glucose uptake CPM, 3T3-L1 fat cells, protein at 0.8 nM of 2200 CPM. Moreover, the Glucose uptake CPM, 3T3-L1 fat cells, protein at 4 nM amounted to 3300 CPM; the Glucose uptake CPM, 3T3-L1 fat cells, protein at 20 nM worked out at 5130 CPM; the Glucose uptake CPM, 3T3-L1 fat cells, protein at 100 nM turned out to be 5320 CPM.

These data come from US20120238496A1.
